Data set [1] has as its system HeLa Kyoto. Description: solubility in G1/S (NP-40 vs SDS abundance) (log2 ratio); higher = more soluble. The conditions noted are these: cell cycle stage: G1/S.
Data set [2] relates to HeLa Kyoto. Description: melting temperature (median over replicates), in situ; higher = more thermally stable.
Data set [3] relates to HeLa Kyoto. Description: solubility change mitosis vs G1/S (difference of NP-40 vs SDS log2 ratios) (log2 ratio difference); higher = more soluble in mitosis.
For data set [4], the system named is HeLa Kyoto. Description: thermal stability score vs G1/S (z-score of summed log2 fold changes over temperatures); higher = more thermally stable than in G1/S.
[5] abbreviates: cell cycle stage: early G1 (4.5 h after nocodazole release).
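For melting temperature (median over replicates), in situ in this document: HeLa Kyoto cells synchronized by double thymidine or nocodazole block, proteins quantified by TMT10plex mass spectrometry, three independent biological replicates.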
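For solubility change mitosis vs G1/S (difference of NP-40 vs SDS log2 ratios) in this document: synchronized HeLa Kyoto cells (double thymidine block for G1/S, nocodazole release for mitosis), protein amounts in NP-40 versus SDS lysates quantified by mass spectrometry, three biological replicates.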
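For solubility in G1/S (NP-40 vs SDS abundance) in this document: HeLa Kyoto cells arrested at G1/S by double thymidine block, proteins quantified by TMT10plex mass spectrometry in mild NP-40 versus SDS extracts, three biological replicates.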
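For thermal stability score vs G1/S (z-score of summed log2 fold changes over temperatures) in this document: synchronized HeLa Kyoto cells, proteins quantified by TMT10plex mass spectrometry, three biological replicates, mitosis taken 0.5 h after nocodazole release, G1/S directly after double thymidine block.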

Consider “MEGSGEQPGPQPQHPGDHRIRDGDFVVLKREDVFKAVQVQRRKKVTFEKQWFYLDNVIGHSYGTAFEVTSGGSLQPKKKREEPTAETKEAGTDNRNIVDDGKSQKLTQDDIKALKDKGIKGEEIVQQLIENSTTFRDKTEFAQDKYIKKKKKKYEAIITVVKPSTRILSIMYYAREPGKINHMRYDTLAQMLTLGNIRAGNKMIVMETCAGLVLGAMMERMGGFGSIIQLYPGGGPVRAATACFGFPKSFLSGLYEFPLNKVDSLLHGTFSAKMLSSEPKDSALVEESNGTLEEKQASEQENEDSMAEAPESNHPEDQETMETISQDPEHKGPKERGSKKDYIQEKQRRQEEQRKRHLEAAALLSERNADGLIVASRFHPTPLLLSLLDFVAPSRPFVVYCQYKEPLLECYTKLRERGGVINLRLSETWLRNYQVLPDRSHPKLLMSGGGGYLLSGFTVAMDNLKADTSLKSNASTLESHETEEPAAKKRKCPESDS [TRMT6]”, for which, in the data set with HeLa Kyoto [1], the “solubility in G1/S (log2)” value worked out at 0.0845. Moreover, the melting temperature in the data set on HeLa Kyoto [2] (cell cycle stage: G1/S) was determined as 54.9 °C; with HeLa Kyoto [2] (cell cycle stage: mitosis), 56.2 °C. In addition, the “solubility change mitosis (log2)” value with HeLa Kyoto [3] stood at 0.019. Further, the thermal stability score was found to be 2.23 in the data set with HeLa Kyoto [4] (setting [5]) and 0.0663 in the data set with HeLa Kyoto [4] (cell cycle stage: mitosis).

In the case of “MGSPEDDLIGIPFPDHSSELLSCLNEQRQLGHLCDLTIRTQGLEYRTHRAVLAACSHYFKKLFTEGGGGAVMGAGGSGTATGGAGAGVCELDFVGPEALGALLEFAYTATLTTSSANMPAVLQAARLLEIPCVIAACMEILQGSGLEAPSPDEDDCERARQYLEAFATATASGVPNGEDSPPQVPLPPPPPPPPRPVARRSRKPRKAFLQTKGARANHLVPEVPTVPAHPLTYEEEEVAGRVGSSGGSGPGDSYSPPTGTASPPEGPQSYEPYEGEEEEEELVYPPAYGLAQGGGPPLSPEELGSDEDAIDPDLMAYLSSLHQDNLAPGLDSQDKLVRKRRSQMPQECPVCHKIIHGAGKLPRHMRTHTGEKPFACEVCGVRFTRNDKLKIHMRKHTGERPYSCPHCPARFLHSYDLKNHMHLHTGDRPYECHLCHKAFAKEDHLQRHLKGQNCLEVRTRRRRKDDAPPHYPPPSTAAASPAGLDLSNGHLDTFRLSLARFWEQSAPTGPPVSTPGPPDDDEEEGAPTTPQAEGAMESS [ZBTB7B]”, the “solubility in G1/S (log2)” value in the data set with HeLa Kyoto [1] is -0.127. Further, the melting temperature with HeLa Kyoto [2] (cell cycle stage: G1/S) is 54.7 °C; in the data set with HeLa Kyoto [2] (cell cycle stage: mitosis), 55 °C. Also, the “solubility change mitosis (log2)” value in the data set on HeLa Kyoto [3] is 0.171. In addition, the thermal stability score with HeLa Kyoto [4] (setting [5]) turned out to be 1.42; in the data set on HeLa Kyoto [4] (cell cycle stage: mitosis), 0.814.

As for “MDNQCTVQVRLELGHRAQLRKKPTTEGFTHDWMVFVRGPEQCDIQHFVEKVVFWLHDSFPKPRRVCKEPPYKVEESGYAGFIMPIEVHFKNKEEPRKVCFTYDLFLNLEGNPPVNHLRCEKLTFNNPTTEFRYKLLRAGGVMVMPEGADTVSRPSPDYPMLPTIPLSAFSDPKKTKPSHGSKDANKESSKTSKPHKVTKEHRERPRKDSESKSSSKELEREQAKSSKDTSRKLGEGRLPKEEKAPPPKAAFKEPKMALKETKLESTSPKGGPPPPPPPPPRASSKRPATADSPKPSAKKQKKSSSKGSRSAPGTSPRTSSSSSFSDKKPAKDKSSTRGEKVKAESEPREAKKALEVEESNSEDEASFKSESAQSSPSNSSSSSDSSSDSDFEPSQNHSQGPLRSMVEDLQSEESDEDDSSSGEEAAGKTNPGRDSRLSFSDSESDNSADSSLPSREPPPPQKPPPPNSKVSGRRSPESCSKPEKILKKGTYDKAYTDELVELHRRLMALRERNVLQQIVNLIEETGHFNVTNTTFDFDLFSLDETTVRKLQSCLEAVAT [MLLT1]”, the “solubility in G1/S (log2)” value in the data set on HeLa Kyoto [1] is -0.205. The melting temperature with HeLa Kyoto [2] (cell cycle stage: G1/S) was 50.5 °C; in the data set on HeLa Kyoto [2] (cell cycle stage: mitosis), 53 °C. Further, in the data set with HeLa Kyoto [3], the “solubility change mitosis (log2)” value was 0.264. Moreover, the thermal stability score was -0.27 in the data set on HeLa Kyoto [4] (setting [5]) and 0.333 in the data set on HeLa Kyoto [4] (cell cycle stage: mitosis).

In the case of “MEYMAESTDRSPGHILCCECGVPISPNPANICVACLRSKVDISQGIPKQVSISFCKQCQRYFQPPGTWIQCALESRELLALCLKKIKAPLSKVRLVDAGFVWTEPHSKRLKVKLTIQKEVMNGAILQQVFVVDYVVQSQMCGDCHRVEAKDFWKAVIQVRQKTLHKKTFYYLEQLILKYGMHQNTLRIKEIHDGLDFYYSSKQHAQKMVEFLQCTVPCRYKASQRLISQDIHSNTYNYKSTFSVEIVPICKDNVVCLSPKLAQSLGNMNQICVCIRVTSAIHLIDPNTLQVADIDGSTFWSHPFNSLCHPKQLEEFIVMECSIVQDIKRAAGAGMISKKHTLGEVWVQKTSEMNTDKQYFCRTHLGHLLNPGDLVLGFDLANCNLNDEHVNKMNSDRVPDVVLIKKSYDRTKRQRRRNWKLKELARERENMDTDDERQYQDFLEDLEEDEAIRKNVNIYRDSAIPVESDTDDEGAPRISLAEMLEDLHISQDATGEEGASMLT [NMD3]”, in the data set on HeLa Kyoto [1], the “solubility in G1/S (log2)” value is -0.119. Besides, the melting temperature in the data set with HeLa Kyoto [2] (cell cycle stage: G1/S) and in the data set on HeLa Kyoto [2] (cell cycle stage: mitosis) was 52.2 °C throughout. In addition, the “solubility change mitosis (log2)” value in the data set with HeLa Kyoto [3] is -0.0927. Moreover, the thermal stability score in the data set with HeLa Kyoto [4] (setting [5]) was -1.14; with HeLa Kyoto [4] (cell cycle stage: mitosis), -1.18.

With “MAAAAAVEAAAPMGALWGLVHDFVVGQQEGPADQVAADVKSGNYTVLQVVEALGSSLENPEPRTRARAIQLLSQVLLHCHTLLLEKEVVHLILFYENRLKDHHLVIPSVLQGLKALSLCVALPPGLAVSVLKAIFQEVHVQSLPQVDRHTVYNIITNFMRTREEELKSLGADFTFGFIQVMDGEKDPRNLLVAFRIVHDLISRDYSLGPFVEELFEVTSCYFPIDFTPPPNDPHGIQREDLILSLRAVLASTPRFAEFLLPLLIEKVDSEVLSAKLDSLQTLNACCAVYGQKELKDFLPSLWASIRREVFQTASERVEAEGLAALHSLTACLSRSVLRADAEDLLDSFLSNILQDCRHHLCEPDMKLVWPSAKLLQAAAGASARACDSVTSNVLPLLLEQFHKHSQSSQRRTILEMLLGFLKLQQKWSYEDKDQRPLNGFKDQLCSLVFMALTDPSTQLQLVGIRTLTVLGAQPDLLSYEDLELAVGHLYRLSFLKEDSQSCRVAALEASGTLAALYPVAFSSHLVPKLAEELRVGESNLTNGDEPTQCSRHLCCLQALSAVSTHPSIVKETLPLLLQHLWQVNRGNMVAQSSDVIAVCQSLRQMAEKCQQDPESCWYFHQTAIPCLLALAVQASMPEKEPSVLRKVLLEDEVLAAMVSVIGTATTHLSPELAAQSVTHIVPLFLDGNVSFLPENSFPSRFQPFQDGSSGQRRLIALLMAFVCSLPRNVEIPQLNQLMRELLELSCCHSCPFSSTAAAKCFAGLLNKHPAGQQLDEFLQLAVDKVEAGLGSGPCRSQAFTLLLWVTKALVLRYHPLSSCLTARLMGLLSDPELGPAAADGFSLLMSDCTDVLTRAGHAEVRIMFRQRFFTDNVPALVQGFHAAPQDVKPNYLKGLSHVLNRLPKPVLLPELPTLLSLLLEALSCPDCVVQLSTLSCLQPLLLEAPQVMSLHVDTLVTKFLNLSSSPSMAVRIAALQCMHALTRLPTPVLLPYKPQVIRALAKPLDDKKRLVRKEAVSARGEWFLLGSPGS [MMS19]”, the “solubility in G1/S (log2)” value in the data set on HeLa Kyoto [1] is -0.14. Also, the melting temperature with HeLa Kyoto [2] (cell cycle stage: G1/S) came out at 50.3 °C; in the data set with HeLa Kyoto [2] (cell cycle stage: mitosis) it was 49.8 °C. The “solubility change mitosis (log2)” value with HeLa Kyoto [3] was -0.141. In addition, the thermal stability score in the data set on HeLa Kyoto [4] (setting [5]) was -0.678; in the data set with HeLa Kyoto [4] (cell cycle stage: mitosis), 0.247.

Consider “MADEAALALQPGGSPSAAGADREAASSPAGEPLRKRPRRDGPGLERSPGEPGGAAPEREVPAAARGCPGAAAAALWREAEAEAAAAGGEQEAQATAAAGEGDNGPGLQGPSREPPLADNLYDEDDDDEGEEEEEAAAAAIGYRDNLLFGDEIITNGFHSCESDEEDRASHASSSDWTPRPRIGPYTFVQQHLMIGTDPRTILKDLLPETIPPPELDDMTLWQIVINILSEPPKRKKRKDINTIEDAVKLLQECKKIIVLTGAGVSVSCGIPDFRSRDGIYARLAVDFPDLPDPQAMFDIEYFRKDPRPFFKFAKEIYPGQFQPSLCHKFIALSDKEGKLLRNYTQNIDTLEQVAGIQRIIQCHGSFATASCLICKYKVDCEAVRGDIFNQVVPRCPRCPADEPLAIMKPEIVFFGENLPEQFHRAMKYDKDEVDLLIVIGSSLKVRPVALIPSSIPHEVPQILINREPLPHLHFDVELLGDCDVIINELCHRLGGEYAKLCCNPVKLSEITEKPPRTQKELAYLSELPPTPLHVSEDSSSPERTSPPDSSVIVTLLDQAAKSNDDLDVSESKGCMEEKPQEVQTSRNVESIAEQMENPDLKNVGSSTGEKNERTSVAGTVRKCWPNRVAKEQISRRLDGNQYLFLPPNRYIFHGAEVYSDSEDDVLSSSSCGSNSDSGTCQSPSLEEPMEDESEIEEFYNGLEDEPDVPERAGGAGFGTDGDDQEAINEAISVKQEVTDMNYPSNKS [SIRT1]”, for which the “solubility in G1/S (log2)” value in the data set on HeLa Kyoto [1] is -0.0978. In addition, the melting temperature in the data set with HeLa Kyoto [2] (cell cycle stage: G1/S) worked out at 50.2 °C; in the data set with HeLa Kyoto [2] (cell cycle stage: mitosis), 50.1 °C. In the data set on HeLa Kyoto [3], the “solubility change mitosis (log2)” value is -0.0419. Besides, the thermal stability score was 0.328 with HeLa Kyoto [4] (setting [5]) and 2.02 in the data set on HeLa Kyoto [4] (cell cycle stage: mitosis).
